Assay: yeast display, Sf9 membrane polyspecificity reagent, FACS + sequencing; frameworks hold sequencing errors
Summary of the method: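 After 36–48 hours of galactose induction, yeast (Saccharomyces cerevisiae BJ5465) displaying a synthetic nanobody library were stained at 4 °C for 1 hour with 10% biotinylated, detergent-solubilized Sf9 membrane reagent. Streptavidin microbeads enriched the stained cells before FACS sorting into low and high (top ~1%) gates on anti-HA and streptavidin fluorescence. Each clone's polyreactivity label reflects its gate of origin.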

| Sequence | polyreactivity (PSR sort gate) |
| --- | --- |
| QVQLVESGGGLVQAGGSLRLSCAASGRTFGYNAMAWYRQAPRKERELVAAISRGGSTNYADSVKGRFTISRDNAKNTVYLQMNSLKPEDTAVYYCAAYDWRVLWGYDYWGQGTQVTVSS | low polyreactivity |
| QVQLVESGGGLVQAGGSLRLSCAASGRTFGYNAMGWYRQAPGKERELVAAINDGGSTNYADSVKGRFTISRDNAKNTVYLQMNSLKPEDTAVYYCATDFSNGRQSTFPYEYYYWGQGTQVTVSS | high polyreactivity |
| QVQLVESGGGLVQAGGSLRLSCAASGRTFGYNAMGWYRQAPGKERELVAAITYSGGRTSYADSVKGRFTISRDNAKNTVYLQMNSLKPEDTAFYYCAAQPRYYSGYNYWGQGTQVTVSS | high polyreactivity |
| QVQLVESGGGLVQAGGSLRLSCAASGRTFGYNGMGWYRQAPGKEREFVAAITWSGGRTYYADSVKGRFTISRDKAKNTVYLQMNSLKPEDTAVYYCAAGKYRYTYYALEYDYWGQGTQVTVSS | low polyreactivity |
| QVQLVESGGGLVQAGGSLRLSCAASGRTFGYNTMGWYRQAPGKEREFVATIRTNGVSTYYADSVKGRFTISRDNAKNTVYLQMNSLKPEDTAVYYCNAPRTRKQKTIYVNAPGNYWGQGTQVTVSS | low polyreactivity |
| QVQLVESGGGLVQAGGSLRLSCAASGRTFGYNVMGWYRQAPGKEMELVAGITSSGSTNYADSVKGRFTISRDNAKNTVYLQMNSLKPEDTAVYYCNADRLITWQLLYISSYRYDYWGQGTQVTVSS | high polyreactivity |
| QVQLVESGGGLVQAGGSLRLSCAASGRTFGYYAMGWYRPAPGKEREFVAAISFRTTSTYYADSVKGRFTISRDNAKNTVYLQLNSLKPEDTAVYYCNVVVKGAWDYYPYDYWGQGPQVTVSS | high polyreactivity |
| QVQLVESGGGLVQAGGSLRLSCAASGRTFGYYAMGWYRPAPGKERELVAAISSGGRTYYADSVKGRFTISRDNAKNTVYLQMNSLKPEDTAVYYCNAASLVAYLARLGRDYWGQGTQVTVSS | low polyreactivity |
| QVQLVESGGGLVQAGGSLRLSCAASGRTFGYYAMGWYRPAPGKERELVASITGGGSTNYADSVKGRFTISRDNAKNTVYLQMNSLKPEDTAVYYCAAETITDDYYEYDYWGQGTQVTVSS | low polyreactivity |
| QVQLVESGGGLVQAGGSLRLSCAASGRTFGYYAMGWYRPEHGTERELVAAITRTGGSTHYADSVKGRFTISRDNAKNTVYLQMNSLKPEDTAVYYCARDYRYTIPYDYWGQGTQVTVSS | low polyreactivity |
| QVQLVESGGGLVQAGGSLRLSCAASGRTFGYYAMGWYRQAPGIERELVATITWGDGTTYYADSVKGRFTFSRDNAKNTVYLQMNILKPEDTAVYYCAVDRSSWWWDDYRYDYWGQGTQVTVSS | low polyreactivity |
| QVQLVESGGGLVQAGGSLRLSCAASGRTFGYYAMGWYRQAPGKERELVAAINSRGGSTYYADSVKGRFTISRDNAKNTVYLQMNSLKPEDTAVYYCAVVRWRHYIFATYDYWGQGTQVTVSS | high polyreactivity |
| QVQLVESGGGLVQAGGSLRLSCAASGRTFGYYAMGWYRQAPGKERELVAAISRSGSRTYYADSVKGRFTISRDNAKNTVYLQMNSLKPEDTAVYYCNKVKEFYVPTEYDYWGQGTQVTVSS | high polyreactivity |
| QVQLVESGGGLVQAGGSLRLSCAASGRTFGYYAMGWYRQAPGKERELVAAISTRSGSTYYADSVKGRFTISRDNAKNTVYLQMNSLKPEDTAVYYCDADSYPDYDYWGQGTQVTVSS | low polyreactivity |
| QVQLVESGGGLVQAGGSLRLSCAASGRTFGYYAMGWYRQAPGKERELVAAISYSSTITYYAGSVKGRFTISRDNAKNTVYLQMNSLKPEDTAVYYCAAYSTRGVEYDYWGQGTQVTVSS | high polyreactivity |
| QVQLVESGGGLVQAGGSLRLSCAASGRTFGYYAMGWYRQAPGKERELVASISWIGDDTYYADSVKGRFTISRDYAKNTVYLQMNSLKPEDTAVYYCNAVYAGRYFGFDYWGQGTQVTVSS | high polyreactivity |
| QVQLVESGGGLVQAGGSLRLSCAASGRTFGYYGMGWYRQAPGKEREFFAAITRSGGSTYYADSVKGRFTISRDNAKNTVYLQMNSLKPEDTAVYYCAAAHLFTRSRPYDYWGQGTQVTVSS | high polyreactivity |
| QVQLVESGGGLVQAGGSLRLSCAASGRTFGYYTMGWYRQAPGKEREFVAAISGSGTITFYADSVKGRFTISRDNAKNTVYLQMNSLKPEDTAVYYCAADYRYGGSRGYRYDYWGQGTQVTVSS | low polyreactivity |
| QVQLVESGGGLVQAGGSLRLSCAASGRTFGYYTMGWYRQAPGKERELVATITSSGGSTYYADSVKGRFTISRDNAKNTVYLQMNSLKPEDTAVYYCAARRKQGAYDYWGQGTQVTVSS | high polyreactivity |
| QVQLVESGGGLVQAGGSLRLSCAASGRTFHANAMGWYRQAPGKERELVAAISYRTGSTYYADSVKGRFTISRDNAKNTVYLQMNILKPDDTAVYYCDVDTRYGYGYWGQGTQVTVSS | high polyreactivity |
| QVQLVESGGGLVQAGGSLRLSCAASGRTFHGYAMGWYRQAPGKERELVARINWSDGRTYYADSVKGRFTISRDNAKNTVYLQMNSLKPEEPAVYYCAATRYYYYWYVYEDRGDFWGQGTQVTVSS | low polyreactivity |
| QVQLVESGGGLVQAGGSLRLSCAASGRTFHTNAMGWYRQAPGKERELVAAITRSGSGTYYADSVKGRFTISRDNAKNTVYLQMNSLKPEDTAVYYCNAVRRGEYDYWGQGTQVTVSS | high polyreactivity |

| Sequence | polyreactivity (PSR sort gate) |
| --- | --- |
| QVQLVESGGGLVQAGGSLRLSCAASGRTFHYNAMGWYRQAPGKERELVAAITRSGGSTYYADSLKGRFTISRVNAKNTVYLQMNSLKPEDTAVYYCAAGWRSVSVRYYGPSDYWGQGTQVTVSS | low polyreactivity |
| QVQLVESGGGLVQAGGSLRLSCAASGRTFHYYAMGWYRQAPGKERELVAGITGGGSTYYADSVKGRFTISRDNAKNTVYLQMNSLKPEDTAVYYCNARPYWFGSYGYWGQGTQVTVSS | low polyreactivity |
| QVQLVESGGGLVQAGGSLRLSCAASGRTFHYYAMGWYRQAPGKERELVASISSGGSTHYADSVKGRFTISRDNANNTGYLQMNSLKPEDTAVYYCNRVDGYGPRNKVPYVTYGVYYWGQGTQVTVSS | low polyreactivity |
| QVQLVESGGGLVQAGGSLRLSCAASGRTFIEYAMAWYRQAPGKERELVAAISRNDGGSTYYADSVKGRFTISRDNAKNTVYLQMNSLKPEDTAVYYCAARRYISAHVRYGSWGQGTQVTLSS | high polyreactivity |
| QVQLVESGGGLVQAGGSLRLSCAASGRTFIGYAMGWYRQAPGKERELVAAISRGGSTKYADSVKGRFTISRDNAKNTVYLQMNSLKPEDTAVYYCAVGWSYYAGLRHRYYSGFDYWGQGTQVTLSS | low polyreactivity |
| QVQLVESGGGLVQAGGSLRLSCAASGRTFILNAMGLYRQAPGKERELVAAISWSGGSTYYADSVKGRFTISRDNAKNTVYLQMNSLKPEDTAVYYCAAETYAYLFHTYDYWGQGTQVTVSS | low polyreactivity |
| QVQLVESGGGLVQAGGSLRLSCAASGRTFINYAMGWYRQAPGKERELVAAITTGGRTNYADSVKGRFTISRDNAKHTVYLQMNSLKPEDTAVYYCAADRYYWGRYTLNYWGQGTQVTVSS | low polyreactivity |
| QVQLVESGGGLVQAGGSLRLSCAASGRTFIRYAMGGYRQATGKERELVAAISWSGGSTYYADSVKGRFTISRDNAKNTVYLQMNSLKPEDTAVYYCARRVGYKFSYDYWGQGTQVTVSS | high polyreactivity |
| QVQLVESGGGLVQAGGSLRLSCAASGRTFIRYTMGWYRQASGKERELVAAITSTGRTYYADSVKGRFTFSRDNAKNTVYLEMNSLKPEDTAVYYCAAKQSWEVYDYWGQGTQVTVSS | low polyreactivity |
| QVQLVESGGGLVQAGGSLRLSCAASGRTFISNVMGWYRQAPGKERELVAAIRSSGRTYYADSVKGRFTISRDNAKNTVYFQMNSLKPEDTAVYYCAAPGGLLGSGYWGQGTQVTVSS | low polyreactivity |
| QVQLVESGGGLVQAGGSLRLSCAASGRTFIVNTMGRYRQAPGKERELVAAITARGGRTYYADSVKGRFTISRDNAKNTVYLQMNSLKPEDTAVYYCNARTPPREAERYYWGLGTQVTVSS | low polyreactivity |
| QVQLVESGGGLVQAGGSLRLSCAASGRTFIYNTMGGYRQAPGKERELVAAITGNGGSTYYADSVKGRFTISRDYEKNTVYFQMNSLKPEDTAVYYCNAVGFDQPRYYYWGQGTQVTVSS | high polyreactivity |
| QVQLVESGGGLVQAGGSLRLSCAASGRTFIYNVMGWYRQAPGKERELVASIRSSGGSTYYADSVKGRFTISRDNAKNTVYLQMNSLKPEDTAVYYCAADRSPGIRGWPGDYWGQGTQVTVSS | low polyreactivity |
| QVQLVESGGGLVQAGGSLRLSCAASGRTFIYYAMGWYRQAPGKERELVAGITYSVGSTYYADSVKGRFTISRDNEKNTVYLQMNSLKPEDTAVYYCAYYYWGQGTQVTVSS | low polyreactivity |
| QVQLVESGGGLVQAGGSLRLSCAASGRTFKDYAMGWYRQAPGKERELVAGINGSGGSTYYADSVKGRFTISRDYAKNTVYLQMNSLKPEDTAVYYCNADFGYWWDGRRYDYWGQGTQVTVSS | low polyreactivity |
| QVQLVESGGGLVQAGGSLRLSCAASGRTFKGYAMGWYRQAPGKERELVAAITGSVGSTYYADSVKGRFTISRDNAKNTVYLQMNSLKPEDTAVYYCAKRWKATRARYDYWGQGTQVTVSS | high polyreactivity |
| QVQLVESGGGLVQAGGSLRLSCAASGRTFKHYVMGWYRQAPGKERELVATISGGGGTYFADSVKGRFTISRYNAKYTVYLQMNSLKPEVTAVYYCAARYPRGSRTWSFDSNKQRDYWGQGTQVTVSS | low polyreactivity |
| QVQLVESGGGLVQAGGSLRLSCAASGRTFKKYAMGWYRQAPGKERELVAAITGSGGSTYYADSVKGRFTISRDNAKNTVYLQMNSLKPEDTAVYYCAAEVVAQMNYWGQGTQVTVSS | low polyreactivity |
| QVQLVESGGGLVQAGGSLRLSCAASGRTFKKYAMGWYRQAPGKERELVAAITGSGGSTYYADSVKGRFTISRDNAKNTVYLQMNSLKPEDTAVYYCAAYAYGVWHSQDGGNYWGQGTLVTVSS | low polyreactivity |
| QVQLVESGGGLVQAGGSLRLSCAASGRTFKLYAMGWYRQAPGKERELVAALSIRGTSTYYADSVKGRFTISRDNAKNTVYLQMNSLKPEDTAVYYCAAEDRYGYYLVRWQGYYYWGQGTQVTVSS | low polyreactivity |
| QVQLVESGGGLVQAGGSLRLSCAASGRTFKNYAMGSYRQAPGKERELVAAISWRSGSTNYADSVKGRCTISRDNAKNTVYLQMNSLKPEDTAVYYCARKRRISGWSQFTSYADFDYWGQGSQVTVSS | low polyreactivity |

Reference: the nanobody polyreactivity screen of Harvey et al. (2022)
